Experiments:
[1] = target: T1, human OX40 expressed on cells (human, UniProt P43489 29-277); assay: cell-based or functional assay
T1 sequence: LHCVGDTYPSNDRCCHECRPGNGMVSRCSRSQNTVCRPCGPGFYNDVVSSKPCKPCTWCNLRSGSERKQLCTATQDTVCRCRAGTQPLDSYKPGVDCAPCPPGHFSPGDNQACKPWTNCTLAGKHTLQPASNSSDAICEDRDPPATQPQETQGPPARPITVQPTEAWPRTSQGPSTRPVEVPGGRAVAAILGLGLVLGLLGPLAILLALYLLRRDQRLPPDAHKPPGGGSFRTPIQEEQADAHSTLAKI

[2] = target: T2, human OX40 chimera with murine CRDII replacing human CRDII (human/mouse chimera, UniProt P43489 29-277); assay: flow cytometry on 293s-huOX40-muCRDII cells
T2 chain: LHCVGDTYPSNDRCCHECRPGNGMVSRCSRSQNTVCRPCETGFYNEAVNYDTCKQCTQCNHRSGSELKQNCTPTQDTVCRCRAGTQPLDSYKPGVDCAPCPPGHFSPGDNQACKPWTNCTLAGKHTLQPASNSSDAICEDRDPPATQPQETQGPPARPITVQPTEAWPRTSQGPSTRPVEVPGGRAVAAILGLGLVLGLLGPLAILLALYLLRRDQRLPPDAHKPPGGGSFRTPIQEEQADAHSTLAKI
Method: (§1) After plating cells, 50 μL of Hu3738 or isotype control antibody at 2 μg/mL were added to corresponding wells in duplicate for each cell line and allowed to incubate on ice for 30 minutes. Following incubation, 200 μL of Dulbecco's Phosphate Buffered Saline (DPBS) was added into each well and plates were spun down at 1000 rpm for three minutes. Supernatants from each well were removed and 50 μL of Cy5-Donkey anti-Human IgG (Jackson ImmunoResearch) secondary antibody was added at a 1:250 dilution, which was then incubated for 30 minutes on ice in the dark. Following the incubation period, 200 μL of DPBS was added prior to spinning down the plate at 1000 rpm for three minutes. Supernatants were removed and each well was re-suspended with 100 μL of DPBS+1% Formaldehyde. Samples were analyzed on the dual laser FACSCalibur flow cytometer (Becton Dickinson).

[3] = target: T1, human OX40 expressed on cells; assay: flow cytometry on Jurkat NF-κB reporter cells expressing human OX40
Method: A Jurkat NF-κB reporter cell line expressing human OX40 protein was cultured in DMEM containing 10% FBS and penicillin/streptomycin (pen/strep). For the binding assay, each cell line was resuspended at 5 million cells per mL. 50 μL (250,000 cells)/well were transferred to each well of a 500 μL polypropylene 96-well plate (Nunc). A 2× stock of test anti-OX40 antibody or isotype control mAb was prepared in a separate dilution plate at 666, 333, 111, 37.03, 12.34, 4.11, 0.457, 0.152, 0.0508, 0.0169, 0.00564 nM in culture media. Each antibody (50 μL/well) was transferred into respective wells of the assay plate. Cells were incubated with the test anti-OX40 antibody or isotype control antibodies for 30 minutes at 4° C. and washed twice with 250 μL/well of PBS by centrifuging at 800 rpm for 3 minutes. Bound antibody was detected with Cy5-Donkey anti-human IgG (H+L) (Jackson ImmunoResearch) diluted to 2 μg/mL (50 μL/well) in PBS for 30 minutes at 4° C. Cells were washed once with 250 μL/well of PBS, resuspended in PBS containing 1% Formaldehyde and analyzed on a dual laser FACSCalibur (Becton Dickinson).

[4] = target: T3, mouse OX40 expressed on 293s cells (mouse, UniProt P47741 20-272); assay: flow cytometry on 293s-muOX40 cells
T3 construct: also called murine OX40
T3 sequence: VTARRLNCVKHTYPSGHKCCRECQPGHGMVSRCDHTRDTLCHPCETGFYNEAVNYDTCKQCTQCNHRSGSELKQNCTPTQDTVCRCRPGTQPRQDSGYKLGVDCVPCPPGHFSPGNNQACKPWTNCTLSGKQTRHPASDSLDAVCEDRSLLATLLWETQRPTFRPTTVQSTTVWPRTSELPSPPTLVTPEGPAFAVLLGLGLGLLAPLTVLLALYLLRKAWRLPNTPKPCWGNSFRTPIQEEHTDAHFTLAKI
Method: as §1

B1: Hu3738 (antibody, V domains shown)
VH: EVQLVESGGGLVQPGGSLRLSCAASGFTFSRYGMSWVRQAPGKGLELVATINSNGGRTYYPDSVKGRFTISRDNAKNSLYLQMNSLRAEDTAVYYCAREGITTAYAMDYWGQGTTVTVSS
VL: DIVMTQSPDSLAVSLGERATINCKASQSVDYDGDSYMHWYQQKPGQPPKLLIYAASILESGVPDRFSGSGSGTDFTLTISSLQAEDVAVYYCQQSNEDPRTFGGGTKVEIKR
notes: Humanized antibody; also called exemplary anti-OX40 antibody Hu3738; Hu3738 VH.1b / Hu3738 VL.1
B1 was tested, and the “EC50 With Cross-linker (nM), NF-κB signaling” value [1] was 0.02 nM, the “EC50 Without Cross-linker (nM), NF-κB signaling” value [1] was 22 nM and the binding result [2] was “no binding (tested: 2 µg/mL)”. For the same binder, the EC50 [3] was 0.5 nM and the binding result [4] was “no binding (tested: 2 µg/mL)”.

— patent publication US20210017289A1 (AbbVie / Abbott, published 2021)
